Source: patent publication EP3342782A1

Tests used:
[1] = biological target: extracellular region of human V158 FcγRIIIa with C-terminal 6x His-tag and GST-tag (human) (UniProt P08637); experiment: SPR; fold vs WT
[2] = biological target: human FcγRIIIa on PBMCs expressing heterozygous V158/F158 FcγRIIIa (human) (UniProt P08637); experiment: cell-based or functional assay

Substance | Fold WT [1] [fold] | ADCC log(EC50) [2]
E272H alemtuzumab (antibody) | 384 | 
E258Y alemtuzumab (antibody) | 1.77 | 
K326E alemtuzumab (antibody) | 3.13 | 
R255Y alemtuzumab (antibody) | 1.41 | 
E283L alemtuzumab (antibody) | 2.56 | 
H268D alemtuzumab (antibody) | 5.66 | 
K246H alemtuzumab (antibody) | 22.4 | 
K246Y alemtuzumab (antibody) | 7.07 | 
E258H alemtuzumab (antibody) | 5.5 | 
V264I/I332E alemtuzumab (antibody) |  | 0.6 log(ng/ml)
S267E alemtuzumab (antibody) | 2.62 | 
S239D/I332E alemtuzumab (antibody) |  | 0.49 log(ng/ml)
S239E alemtuzumab (antibody) | 3.28 | 
I332D alemtuzumab (antibody) | 11.2 | 
T260H alemtuzumab (antibody) | 1.86 | 
